Reference: publication PMC6531468

Columns and labels:
[1] = molecular target: IMP3 KH3-4 (Homo sapiens) (UniProt O00425); test: SELEX; settings: round 4
[2] = molecular target: IMP3 KH1-2 (Homo sapiens) (UniProt O00425); test: SELEX; settings: round 4
[3] = molecular target: IMP3 KH1-4 (Homo sapiens) (UniProt O00425); test: SELEX; settings: round 4
[4] = molecular target: IMP3 RRM1-2 (Homo sapiens) (UniProt O00425); test: SELEX; settings: round 2
[5] = molecular target: IMP3 full length (Homo sapiens) (UniProt O00425); test: SELEX; settings: round 4
[6] = molecular target: IMP3 full length (Homo sapiens) (UniProt O00425); test: EMSA; settings: Hill n 3.1; EMSA: 10 mM Tris-HCl pH 7.5, 150 mM NaCl, 0.5 mM EDTA, 0.5 mM DTT, 0.1% NP-40, 5% glycerol, tRNA+BSA, 5 nM RNA, 30 min RT then ice; ITC/NMR: 20 mM Bis-Tris …

IMP3 KH1-2 (Homo sapiens), sequence (O00425 164-376): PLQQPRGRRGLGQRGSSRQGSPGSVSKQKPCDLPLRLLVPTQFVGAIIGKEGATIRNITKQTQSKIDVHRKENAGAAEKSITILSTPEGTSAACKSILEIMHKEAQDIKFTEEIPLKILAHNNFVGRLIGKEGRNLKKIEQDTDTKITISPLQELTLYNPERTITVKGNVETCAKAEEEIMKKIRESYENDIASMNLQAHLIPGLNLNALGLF
IMP3 RRM1-2 (Homo sapiens), sequence (O00425 1-163): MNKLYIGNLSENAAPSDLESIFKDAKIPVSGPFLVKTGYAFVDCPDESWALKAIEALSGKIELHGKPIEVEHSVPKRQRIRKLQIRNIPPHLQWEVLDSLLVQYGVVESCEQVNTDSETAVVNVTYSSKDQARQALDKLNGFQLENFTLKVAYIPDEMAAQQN
IMP3 full length (Homo sapiens), sequence (O00425 whole entry): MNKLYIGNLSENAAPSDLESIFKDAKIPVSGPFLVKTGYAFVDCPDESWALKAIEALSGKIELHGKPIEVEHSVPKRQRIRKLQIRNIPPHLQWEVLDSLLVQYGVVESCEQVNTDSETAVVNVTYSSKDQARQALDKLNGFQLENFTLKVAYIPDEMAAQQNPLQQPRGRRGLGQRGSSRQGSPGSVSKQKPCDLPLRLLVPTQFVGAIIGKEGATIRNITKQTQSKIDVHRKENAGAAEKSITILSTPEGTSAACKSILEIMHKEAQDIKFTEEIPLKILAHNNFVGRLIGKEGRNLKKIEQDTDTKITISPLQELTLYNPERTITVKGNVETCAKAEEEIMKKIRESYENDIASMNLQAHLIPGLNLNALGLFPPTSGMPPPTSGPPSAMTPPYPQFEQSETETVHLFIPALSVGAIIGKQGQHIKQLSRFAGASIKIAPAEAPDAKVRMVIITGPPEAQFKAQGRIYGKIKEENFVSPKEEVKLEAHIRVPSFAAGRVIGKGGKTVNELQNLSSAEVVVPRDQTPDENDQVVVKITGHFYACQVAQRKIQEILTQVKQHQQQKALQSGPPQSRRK
IMP3 KH1-4 (Homo sapiens), sequence (O00425 164-579): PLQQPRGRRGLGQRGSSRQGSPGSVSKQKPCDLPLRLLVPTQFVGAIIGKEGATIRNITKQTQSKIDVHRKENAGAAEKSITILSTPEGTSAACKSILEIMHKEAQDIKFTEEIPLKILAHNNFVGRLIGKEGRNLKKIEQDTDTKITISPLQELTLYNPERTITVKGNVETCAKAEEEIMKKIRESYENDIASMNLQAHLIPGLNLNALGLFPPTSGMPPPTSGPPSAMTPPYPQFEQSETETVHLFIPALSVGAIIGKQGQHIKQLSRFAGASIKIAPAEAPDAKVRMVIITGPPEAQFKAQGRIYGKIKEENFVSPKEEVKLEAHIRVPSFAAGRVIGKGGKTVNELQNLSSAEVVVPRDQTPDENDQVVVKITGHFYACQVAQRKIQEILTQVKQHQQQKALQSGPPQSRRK
IMP3 KH3-4 (Homo sapiens), sequence (O00425 377-579): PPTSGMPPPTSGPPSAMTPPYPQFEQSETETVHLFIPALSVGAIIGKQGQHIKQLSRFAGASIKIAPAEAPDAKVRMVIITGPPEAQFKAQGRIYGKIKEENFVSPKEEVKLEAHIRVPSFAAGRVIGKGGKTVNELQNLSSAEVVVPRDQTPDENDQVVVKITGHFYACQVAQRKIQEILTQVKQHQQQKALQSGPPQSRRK

AAAUAA [6-mer AAATAA] gave a binding signal (SELEX z-score, GST-corrected) [1] of 3.39.

Substance AACACA [6-mer AACACA] has a binding signal (SELEX z-score, GST-corrected) [2] of 4.09, a binding signal (SELEX z-score, GST-corrected) [3] of 2.92 and a binding signal (SELEX z-score, GST-corrected) [4] of 5.77. For the same substance, the binding signal (SELEX z-score, GST-corrected) [5] was 4.2.

AACAUA [6-mer AACATA] gave a binding signal (SELEX z-score, GST-corrected) [2] of 2.92 and a binding signal (SELEX z-score, GST-corrected) [1] of 3.48.

Work on AAUAAA [6-mer AATAAA] yielded a binding signal (SELEX z-score, GST-corrected) [1] of 3.28.

AAUAAU [6-mer AATAAT] was tested, and the binding signal (SELEX z-score, GST-corrected) [1] was 3.24.

For AAUACA [6-mer AATACA], the binding signal (SELEX z-score, GST-corrected) [2] was 3.44, the binding signal (SELEX z-score, GST-corrected) [3] was 2.77 and the binding signal (SELEX z-score, GST-corrected) [1] was 3.32.

Work on AAUAUA [6-mer AATATA] yielded a binding signal (SELEX z-score, GST-corrected) [1] of 3.67.

For AAUCAU [6-mer AATCAT], the binding signal (SELEX z-score, GST-corrected) [4] was 3.82.

For AAUGAA [6-mer AATGAA], the binding signal (SELEX z-score, GST-corrected) [1] was 3.19.

In the case of AAUUAA [6-mer AATTAA], the binding signal (SELEX z-score, GST-corrected) [1] is reported as 3.41.

ACAACA [6-mer ACAACA] was tested, and the binding signal (SELEX z-score, GST-corrected) [2] was 2.86 and the binding signal (SELEX z-score, GST-corrected) [4] was 3.86.

Substance ACAAUA [6-mer ACAATA] has a binding signal (SELEX z-score, GST-corrected) [2] of 3.75, a binding signal (SELEX z-score, GST-corrected) [3] of 2.68 and a binding signal (SELEX z-score, GST-corrected) [1] of 3.13.

ACACAA [6-mer ACACAA] gave a binding signal (SELEX z-score, GST-corrected) [4] of 4.19.

Work on ACACAC [6-mer ACACAC] yielded a binding signal (SELEX z-score, GST-corrected) [2] of 3.26 and a binding signal (SELEX z-score, GST-corrected) [4] of 5.19.

ACACAU [6-mer ACACAT] was tested, and the binding signal (SELEX z-score, GST-corrected) [2] was 3.81, the binding signal (SELEX z-score, GST-corrected) [3] was 3.27 and the binding signal (SELEX z-score, GST-corrected) [4] was 4.49. The binding signal (SELEX z-score, GST-corrected) [5] was 3.99.

ACAUAA [6-mer ACATAA] gave a binding signal (SELEX z-score, GST-corrected) [2] of 3.61, a binding signal (SELEX z-score, GST-corrected) [3] of 2.92 and a binding signal (SELEX z-score, GST-corrected) [1] of 3.74.

ACAUAU [6-mer ACATAT] was tested, and the binding signal (SELEX z-score, GST-corrected) [2] was 2.92, the binding signal (SELEX z-score, GST-corrected) [3] was 2.88 and the binding signal (SELEX z-score, GST-corrected) [1] was 3.36.

Work on ACAUCA [6-mer ACATCA] yielded a binding signal (SELEX z-score, GST-corrected) [4] of 3.94 and a binding signal (SELEX z-score, GST-corrected) [5] of 4.02.

Work on ACGGCA [6-mer ACGGCA] yielded a binding signal (SELEX z-score, GST-corrected) [3] of 3.02 and a binding signal (SELEX z-score, GST-corrected) [5] of 4.07.

In the case of AUAACA [6-mer ATAACA], the binding signal (SELEX z-score, GST-corrected) [2] is reported as 3.77, the binding signal (SELEX z-score, GST-corrected) [3] is reported as 3.19 and the binding signal (SELEX z-score, GST-corrected) [1] is reported as 4.15.

AUAAUA [6-mer ATAATA] was tested, and the binding signal (SELEX z-score, GST-corrected) [1] was 3.54.

For AUACAU [6-mer ATACAT], the binding signal (SELEX z-score, GST-corrected) [2] was 3.08 and the binding signal (SELEX z-score, GST-corrected) [3] was 2.8.

Substance AUAUAA [6-mer ATATAA] has a binding signal (SELEX z-score, GST-corrected) [1] of 3.89.

Work on AUCACA [6-mer ATCACA] yielded a binding signal (SELEX z-score, GST-corrected) [4] of 4.39 and a binding signal (SELEX z-score, GST-corrected) [5] of 3.5.

For CAAACA [6-mer CAAACA], the binding signal (SELEX z-score, GST-corrected) [4] was 3.91.

Work on CAACAC [6-mer CAACAC] yielded a binding signal (SELEX z-score, GST-corrected) [4] of 3.39.

CAAUCA [6-mer CAATCA] gave a binding signal (SELEX z-score, GST-corrected) [4] of 5.47.

In the case of CACAAC [6-mer CACAAC], the binding signal (SELEX z-score, GST-corrected) [4] is reported as 3.4.

For CACACA [6-mer CACACA], the binding signal (SELEX z-score, GST-corrected) [2] was 4.01, the binding signal (SELEX z-score, GST-corrected) [3] was 3.36 and the binding signal (SELEX z-score, GST-corrected) [4] was 6.79. The binding signal (SELEX z-score, GST-corrected) [5] was 4.75.

With CACAUA [6-mer CACATA] the binding signal (SELEX z-score, GST-corrected) [2] was 3.62 and the binding signal (SELEX z-score, GST-corrected) [3] was 3.19.

Substance CAUACA [6-mer CATACA] has a binding signal (SELEX z-score, GST-corrected) [2] of 3.49, a binding signal (SELEX z-score, GST-corrected) [3] of 2.86 and a binding signal (SELEX z-score, GST-corrected) [4] of 3.6. It also gave a binding signal (SELEX z-score, GST-corrected) [5] of 3.76.

Substance CAUCAC [6-mer CATCAC] has a binding signal (SELEX z-score, GST-corrected) [5] of 3.28.

With CAUCAU [6-mer CATCAT] the binding signal (SELEX z-score, GST-corrected) [5] was 3.65.

Substance CAUUCA [6-mer CATTCA] has a binding signal (SELEX z-score, GST-corrected) [4] of 3.79 and a binding signal (SELEX z-score, GST-corrected) [5] of 3.36.

CGGCAC [6-mer CGGCAC] gave a binding signal (SELEX z-score, GST-corrected) [3] of 2.99 and a binding signal (SELEX z-score, GST-corrected) [5] of 4.28.

CGGCCA [6-mer CGGCCA] showed a binding signal (SELEX z-score, GST-corrected) [3] of 2.71.

Substance GCACAC [6-mer GCACAC] has a binding signal (SELEX z-score, GST-corrected) [5] of 3.25.

Work on GGCACA [6-mer GGCACA] yielded a binding signal (SELEX z-score, GST-corrected) [3] of 3.92, a binding signal (SELEX z-score, GST-corrected) [1] of 3.69 and a binding signal (SELEX z-score, GST-corrected) [5] of 4.85.

GGCAUC [6-mer GGCATC] was tested, and the binding signal (SELEX z-score, GST-corrected) [5] was 3.48.

In the case of GUCGGC [6-mer GTCGGC], the binding signal (SELEX z-score, GST-corrected) [5] is reported as 3.3.

HMGA2 WT showed a Kd [6] of 0.0131 µM.

UACACA [6-mer TACACA] showed a binding signal (SELEX z-score, GST-corrected) [2] of 2.92.
